Where no end group is shown, it is not given here.
Tests used:
[1] = test system: Rev1-CT domain; details: human RIR motifs; cited from earlier work
[2] = biological target: Polκ RIR (Homo sapiens) (UniProt Q9UBT6); assay: SPR; details: cited from earlier work
[3] = biological target: Polκ RIR (Homo sapiens) (UniProt Q9UBT6); assay: intrinsic tryptophan fluorescence; details: cited from earlier work
[4] = biological target: T1, Human Rev1 C-terminal domain (Rev1-CT; residues 1158-1251) (human, UniProt Q9UBZ9 1158-1251); assay: SPR
T1 sequence (looked up): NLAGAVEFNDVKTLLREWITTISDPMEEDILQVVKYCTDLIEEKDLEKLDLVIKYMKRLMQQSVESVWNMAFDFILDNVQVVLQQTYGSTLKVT

[5] = test system: yeast Rev7; details: unstructured C-terminal part of Pol32, purified proteins; cited from earlier work

In the case of CEMSHKKSFFDKKRSER [Polκ-RIR], the “affinity range of Rev1-CT interactions with RIR motifs” value [1] is given as “µM to mM affinities”.

For Rev1 CTD (from UniProt Q9UBZ9), the Kd [2] is given as 7600 nM and the Kd [3] is given as 300 nM.

With EMSHKKSFFDKKRSER [Polκ-RIR peptide (residues 560-575) modified with an N-terminal cysteine residue] the Kd [4] was 1700 ± 600 nM.

B1: Pol32: subunit of yeast Polζ (homologue of human PolD3) (protein, UniProt P47110 1-350, looked up)
DNA polymerase delta subunit 3: MDQKASYFINEKLFTEVKPVLFTDLIHHLKIGPSMAKKLMFDYYKQTTNAKYNCVVICCYKDQTIKIIHDLSNIPQQDSIIDCFIYAFNPMDSFIPYYDIIDQKDCLTIKNSYELKVSESSKIIERTKTLEEKSKPLVRPTARSKTTPEETTGRKSKSKDMGLRSTALLAKMKKDRDDKETSRQNELRKRKEENLQKINKQNPEREAQMKELNNLFVEDDLDTEEVNGGSKPNSPKETDSNDKDKNNDDLEDLLETTAEDSLMDVPKIQQTKPSETEHSKEPKSEEEPSSFIDEDGYIVTKRPATSTPPRKPSPVVKRALSSSKKQETPSSNKRLKKQGTLESFFKRKAK
For B1, the “Rev7 - Pol32 interaction” value [5] is given as “direct interaction”.

Reference: publication PMC4898654 (Biochemistry, 2016)
